Measured values taken from patent US7657380.

Experiments:
[1] = biological target: GST-fused human V158 FcγRIIIa (extracellular region) (human) (UniProt P08637); assay: AlphaScreen competition vs biotin-WT AC10
[2] = biological target: GST-fused human V158 FcγRIIIa (extracellular region) (human) (UniProt P08637); assay: SPR, GST-FcγRIIIa V158 on chip

Sequence of GST-fused human V158 FcγRIIIa (extracellular region) (human) (P08637 17-208 F176V): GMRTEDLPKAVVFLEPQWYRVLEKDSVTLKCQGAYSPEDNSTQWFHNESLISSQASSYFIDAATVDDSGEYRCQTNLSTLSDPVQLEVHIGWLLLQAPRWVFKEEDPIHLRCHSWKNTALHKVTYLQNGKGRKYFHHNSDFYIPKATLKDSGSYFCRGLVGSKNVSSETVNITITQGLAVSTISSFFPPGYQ

IC50 [1]: 0.0872 µM
Kd [2]: 0.0186 µM
Substance: AC10 WT (H0/L0) full length antibody
